Measured values taken from the supplement of paper PMC10126150.
± gives the standard deviation of the averaged measurements.

System: ATP
Experiment: switch fluorescence ratio, 500 uM ATP over buffer (Cy3 cluster intensity, sum of 5 cycles each) (fold (ratio)); higher = stronger signal-on switching upon ATP binding; sequences stand for … in TCGTCGGCAGCGTCAGATGTGTATAAGAGACAGTTTTTTTTTTTTTTTTTTTTTTTTT…TC
Conditions: aptamer strand: ATP DNA aptamer (quencher-CACCTGGGGGAGTATTGCGGAGGAAGG + anchor), 100 nM annealed; ATP concentration: 500 uM
Summary of the method: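 After annealing to 100 nM quencher-labelled ATP aptamer, Cy3-labelled switching-strand clusters on a modified Illumina MiSeq flow-cell were imaged in selection buffer. A second image followed after 15 min with 500 uM ATP at 22 °C, and five such buffer/ATP cycles were done, each separated by NaOH stripping and re-annealing. The fluorescence ratio, averaged per switch-domain sequence, is summed target-cycle over summed buffer-cycle Cy3 intensity per cluster, with clusters outside 100-1000 RFU excluded.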
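Note: ATP exposure 15 min at 22 °C before imaging.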

Sequence	switch fluorescence ratio
TTTACAGGGA	1.027 ± 0.0086
TCCTTTATAC	3.09 ± 0.71
GTTTTTACGT	1.12 ± 0.14
CTAGGGCGCC	0.975 ± 0.012
CCATATAGGC	1.03 ± 0.065
TTATTAAACG	1.015 ± 0.0029
AGCGAGGTCG	1 ± 0.031
TTTCGAACAT	1.03 ± 0.068
GTTAGGAGTT	0.941 ± 0.039
GGGGTGTCGG	1.05 ± 0.14
ATATCCAATA	0.99 ± 0.036
TCGATCTTTT	1.24 ± 0.4
AGGGAGGCAG	1 ± 0.033
ACGCTAGGGC	1.16 ± 0.039
AAGAGGTGGG	0.99 ± 0.024
TAGGTGTGTA	0.984 ± 0.031
CATGTGATTA	1.007 ± 0.01
CAGACGCGGG	0.99 ± 0.057
GGGGGAATAG	1.05 ± 0.046
GGGTGAAAGC	1 ± 0.017
TGATATACTG	0.968 ± 0.026
GAGGGGATTT	1.01 ± 0.013
AAGATCCTTT	0.986 ± 0.025
AAGGGTGGGT	0.9876 ± 0.0045
TTGTATTAAT	0.975 ± 0.031

Sequence	switch fluorescence ratio
AAATATTGGG	0.98 ± 0.068
ATTCAATCGA	1.018 ± 0.0031
CAAAGCTGGG	1.05 ± 0.05
AATAGGAATT	0.9708 ± 0.0059
ACTGGGCTGT	1.06 ± 0.062
AAATAGGGGT	1 ± 0.039
TGTGGTTGCG	1.01 ± 0.017
TGGTGAGGGA	0.99 ± 0.014
GAACGGCGGA	0.9811 ± 0.002
AAAGAGCTAG	1 ± 0.053
CAGTGATTC	1.26 ± 0.35
TTTATTGAGT	0.978 ± 0.048
GGGCAGTAGG	1 ± 0.025
ATTTTAAGTC	0.987 ± 0.041
CGGTAGGGGT	0.969 ± 0.028
GCGAGCGCTG	1.02 ± 0.032
TCCTTTTTTT	1.01 ± 0.033
CTTTCAGGCT	0.984 ± 0.016
GGTTTAATCG	1.01 ± 0.046
ATCGCTATGT	1.05 ± 0.043
GCTATCACCA	1.31 ± 0.32
GGCAGTTGCT	0.9882 ± 0.0056
CGGGTGCCGT	1.06 ± 0.15
TTTTTTTTAA	1.01 ± 0.045
AGTGCCGGCA	1.02 ± 0.051

Sequence	switch fluorescence ratio
ACGTCCCGGG	1.09 ± 0.015
CCCATTTAGG	1.04 ± 0.084
GAATTTAAAA	0.9747 ± 0.0071
ATGAGTTTTT	1.01 ± 0.054
CACGGACTGC	1.42 ± 0.07
AGAGTCTATC	0.972 ± 0.044
GGTTAGGGGG	1 ± 0.052
CGAAAAGGTG	1.05 ± 0.054
TTGTATAATT	0.969 ± 0.038
CTTGGCAAGG	1.03 ± 0.04
AGGCTTGTGC	1.01 ± 0.081
AGTGGACAGC	1 ± 0.031
TTTAGGGGCT	0.9764 ± 0.0076
AGTCCCCCTA	1.08 ± 0.069
TGGGGGCACT	0.982 ± 0.022
TATTTGCATC	1.01 ± 0.018
GTGATTGCTG	0.9883 ± 0.0052
TGGCGTTGGT	0.994 ± 0.056
TCAAGGGCAG	1.0257 ± 0.00011
TGGGGACTTA	1.012 ± 0.0089
TTGTACAA	0.993 ± 0.017
TTAAAGTAGC	1.02 ± 0.017
AAGGATGGCC	1.01 ± 0.021
TTCATCGTAT	1.01 ± 0.015
TCCTGATTGT	0.988 ± 0.022

Sequence	switch fluorescence ratio
GACTCGAGGC	1.05 ± 0.06
TCGGGGTGCA	0.9732 ± 0.0086
GGTTCTTTTC	0.996 ± 0.037
CGGGAGCGTC	1.02 ± 0.01
GTACGTAGGC	1.03 ± 0.06
TTAAGAATGG	1.01 ± 0.014
ATAATTGTTT	0.984 ± 0.042
AATTATAATG	1.034 ± 0.0047
AACTTTAGTT	1.02 ± 0.027
TTTGATACCC	0.991 ± 0.064
TACAGAGGCA	1.02 ± 0.031
TTGCTAGCCT	1.01 ± 0.021
TTGGTAATGT	1.03 ± 0.016
AACAGGGGGT	1.01 ± 0.032
ATGAGCAAGA	1.49 ± 0.015
CGTTTATCTG	0.972 ± 0.025
ATTGTGGGCG	0.952 ± 0.017
AGGTTTATCA	0.991 ± 0.028
CTGAACTCGA	1.09 ± 0.046
ACTCGGTGTG	0.992 ± 0.029
TAAGGAATGA	0.993 ± 0.019
ATTGAATGTG	0.973 ± 0.013
TTTTCGGTGG	1.05 ± 0.019
GGCGAAGGGT	0.98 ± 0.012
CCTGCCTCCT	2.27 ± 0.041

Sequence	switch fluorescence ratio
GTTAGAGGGC	1 ± 0.011
CGGGGGCTTT	0.99 ± 0.017
GGTCTTCTTT	0.994 ± 0.029
ATATTTTTT	0.9892 ± 0.0038
ATATGGCTTT	1.02 ± 0.013
GGGCGAGCCT	1.028 ± 0.008
TTAATGTT	1.02 ± 0.018
TTTCGTTTTG	0.998 ± 0.016
CGGGGGTAGG	1.03 ± 0.049
AAGTTGAGGA	0.978 ± 0.016
CATTATGGAG	1 ± 0.047
AAAGGCCAGT	1.03 ± 0.018
TCCTTGAGTG	1.03 ± 0.031
TCTTGGGTAT	0.986 ± 0.035
GAATCGTTTC	0.996 ± 0.053
AGTTTTGGCG	0.973 ± 0.0047
TCGGTTTTGT	0.983 ± 0.026
GTTTGGTGAG	1.01 ± 0.021
TTTGCATGCC	1.05 ± 0.085
TATCTCAGAA	0.99 ± 0.014
TCCAGGGGCG	1.73 ± 0.99
TGTTTATGAC	0.9847 ± 0.0081
CTGGTAAGGT	0.9947 ± 0.0074
AGCACGGGTT	1.21 ± 0.3
GCTAGATGCG	0.973 ± 0.03

Sequence	switch fluorescence ratio
GTTTAAAAAG	0.9958 ± 0.0034
CAGCGATTTA	1.02 ± 0.053
GACATGGGTT	0.983 ± 0.015
TTCAAAGGCC	0.981 ± 0.049
TGGGAAGTTG	0.956 ± 0.04
GGTTTGTGTT	0.974 ± 0.017
GTTGACAAAT	1.036 ± 0.01
AGGGCAATGT	1.11 ± 0.032
CGATCGTAAT	2.1 ± 0.036
AGTGTGCGGT	0.9491 ± 0.0089
TGGTTTTAGA	0.999 ± 0.016
ATAGGAAAGG	0.999 ± 0.035
GGTTCACGGG	0.983 ± 0.015
AACTTTACTC	1.55 ± 0.095
ACTTATATA	1.02 ± 0.022
GAGGGCGGGA	1.01 ± 0.047
AATGTGCAGT	0.9627 ± 0.0043
GTTGTGGATA	0.97 ± 0.029
TCAGGGCTAG	0.9837 ± 0.0093
CGATTCAAGG	1.03 ± 0.017
TTAAGTTGTG	0.9827 ± 0.0013
CTCACATTGA	1.05 ± 0.025
ACCCAAGATT	1.01 ± 0.017
GAAAAGCCCC	1.09 ± 0.059
CACTGTATCG	1.13 ± 0.063

Sequence	switch fluorescence ratio
GGCGGATGGG	1.02 ± 0.026
CAATACTAAC	1.32 ± 0.037
TGCAGTGTGC	1.01 ± 0.015
TTTCGCGGGT	1.05 ± 0.067
GATTGAGGTC	0.989 ± 0.037
TAAGGTTCAC	1.003 ± 0.0083
GAGGGTTGAA	0.999 ± 0.033
TGTTGGTTAG	0.989 ± 0.014
GCCTGTTTGT	0.983 ± 0.02
TGGGATCGTC	0.966 ± 0.042
GGATGTATAA	1.01 ± 0.028
GGGGTTAAGT	0.98 ± 0.014
TTGCATTAGG	1.28 ± 0.31
ATTGAGAATC	0.962 ± 0.035
TTTAAAATGG	0.9998 ± 0.0073
CCGGGGGGCC	1.08 ± 0.038
TTATTCTGCT	1.03 ± 0.03
GGAGAATTTA	1.02 ± 0.034
AATGGTTTTT	0.991 ± 0.031
GGGTTTTCGA	1.014 ± 0.0011
GGCGGATGGA	1.01 ± 0.037
TTGTGATGGC	1.03 ± 0.11
GCGGGAGAGG	1.02 ± 0.033
GACGGGCGGC	0.984 ± 0.02
TAAAGGTGTT	1.09 ± 0.095

Sequence	switch fluorescence ratio
GGTCGGGGGA	0.99 ± 0.061
GAGAGTATTT	0.995 ± 0.073
CGCTGTTGGT	0.9997 ± 0.0098
TATTTTTTTG	1.01 ± 0.018
GGTTAGGGAC	1.04 ± 0.04
GGATTAGTGC	1.06 ± 0.039
GTATAGGGTT	0.9931 ± 0.007
TAGGGGGGGG	1.02 ± 0.073
GGGGGCTATA	1.001 ± 0.0094
TACTTAGTGC	1.02 ± 0.045
CGTAATAAGG	0.98799 ± 0.00022
TACGGCTTTT	1.01 ± 0.0062
TTTGATGTGT	0.997 ± 0.032
TGAAAAGGGA	1.01 ± 0.017
TGAGGACCCT	1.02 ± 0.025
GTCGGAAGGG	1.01 ± 0.032
CAGTTTAATG	1.014 ± 0.0015
ATATATTGCG	1.016 ± 0.0031
AAAATATTTG	0.964 ± 0.011
ACATTTTTAT	1.03 ± 0.015
GCGTGAAGAA	1.03 ± 0.029
CATTTAGGTA	1.001 ± 0.0078
GTGAGTAGGG	0.989 ± 0.018
ACTATGTGGT	0.9971 ± 0.0096
TATAAGGGAG	0.996 ± 0.023
